Data set [1] relates to HeLa Kyoto. The data set is described as follows: solubility in G1/S (NP-40 vs SDS abundance) (log2 ratio); higher = more soluble. Particulars: cell cycle stage: G1/S.
The subject of data set [2] is HeLa Kyoto. The experiment in a line: melting temperature (median over replicates), in situ; higher = more thermally stable.
Data set [3] deals with HeLa Kyoto. The data set is described as follows: solubility change mitosis vs G1/S (difference of NP-40 vs SDS log2 ratios) (log2 ratio difference); higher = more soluble in mitosis.
The subject of data set [4] is HeLa Kyoto. The experiment in a line: thermal stability score vs G1/S (z-score of summed log2 fold changes over temperatures); higher = more thermally stable than in G1/S.
Setting [5] is: cell cycle stage: early G1 (4.5 h after nocodazole release).
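For melting temperature (median over replicates), in situ in this document: HeLa Kyoto cells synchronized by double thymidine or nocodazole block, proteins quantified by TMT10plex mass spectrometry, three independent biological replicates.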
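For solubility change mitosis vs G1/S (difference of NP-40 vs SDS log2 ratios) in this document: synchronized HeLa Kyoto cells (double thymidine block for G1/S, nocodazole release for mitosis), protein amounts in NP-40 versus SDS lysates quantified by mass spectrometry, three biological replicates.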
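For solubility in G1/S (NP-40 vs SDS abundance) in this document: HeLa Kyoto cells arrested at G1/S by double thymidine block, proteins quantified by TMT10plex mass spectrometry in mild NP-40 versus SDS extracts, three biological replicates.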
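For thermal stability score vs G1/S (z-score of summed log2 fold changes over temperatures) in this document: synchronized HeLa Kyoto cells, proteins quantified by TMT10plex mass spectrometry, three biological replicates, mitosis taken 0.5 h after nocodazole release, G1/S directly after double thymidine block.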

As to “MSLSHLYRDGEGRIDDDDDERENFEITDWDLQNEFNPNRQRHWQTKEEATYGVWAERDSDDERPSFGGKRARDYSAPVNFISAGLKKGAAEEAELEDSDDEEKPVKQDDFPKDFGPRKLKTGGNFKPSQKGFAGGTKSFMDFGSWERHTKGIGQKLLQKMGYVPGRGLGKNAQGIINPIEAKQRKGKGAVGAYGSERTTQSMQDFPVVDSEEEAEEEFQKELSQWRKDPSGSKKKPKYSYKTVEELKAKGRISKKLTAPQKELSQVKVIDMTGREQKVYYSYSQISHKHNVPDDGLPLQSQQLPQSGKEAKAPGFALPELEHNLQLLIDLTEQEIIQNDRQLQYERDMVVNLFHELEKMTEVLDHEERVISNLSKVLEMVEECERRMQPDCSNPLTLDECARIFETLQDKYYEEYRMSDRVDLAVAIVYPLMKEYFKEWDPLKDCTYGTEIISKWKSLLENDQLLSHGGQDLSADAFHRLIWEVWMPFVRNIVTQWQPRNCDPMVDFLDSWVHIIPVWILDNILDQLIFPKLQKEVENWNPLTDTVPIHSWIHPWLPLMQARLEPLYSPIRSKLSSALQKWHPSDSSAKLILQPWKDVFTPGSWEAFMVKNIVPKLGMCLGELVINPHQQHMDAFYWVIDWEGMISVSSLVGLLEKHFFPKWLQVLCSWLSNSPNYEEITKWYLGWKSMFSDQVLAHPSVKDKFNEALDIMNRAVSSNVGAYMQPGARENIAYLTHTERRKDFQYEAMQERREAENMAQRGIGVAASSVPMNFKDLIETKAEEHNIVFMPVIGKRHEGKQLYTFGRIVIYIDRGVVFVQGEKTWVPTSLQSLIDMAK [TFIP11]”, the “solubility in G1/S (log2)” value in the data set with HeLa Kyoto [1] was -0.472. The results for the melting temperature in the data set with HeLa Kyoto [2] (cell cycle stage: G1/S) and in the data set on HeLa Kyoto [2] (cell cycle stage: mitosis) were 48.4 °C and 48.9 °C, respectively. For the same sequence, in the data set with HeLa Kyoto [3], the “solubility change mitosis (log2)” value amounted to 0.115. Moreover, the figures for the thermal stability score in the data set with HeLa Kyoto [4] (setting [5]) and in the data set with HeLa Kyoto [4] (cell cycle stage: mitosis) were 0.21 and 1.2, respectively.
Consider “MSLSNKLTLDKLDVKGKRVVMRVDFNVPMKNNQITNNQRIKAAVPSIKFCLDNGAKSVVLMSHLGRPDGVPMPDKYSLEPVAVELKSLLGKDVLFLKDCVGPEVEKACANPAAGSVILLENLRFHVEEEGKGKDASGNKVKAEPAKIEAFRASLSKLGDVYVNDAFGTAHRAHSSMVGVNLPQKAGGFLMKKELNYFAKALESPERPFLAILGGAKVADKIQLINNMLDKVNEMIIGGGMAFTFLKVLNNMEIGTSLFDEEGAKIVKDLMSKAEKNGVKITLPVDFVTADKFDENAKTGQATVASGIPAGWMGLDCGPESSKKYAEAVTRAKQIVWNGPVGVFEWEAFARGTKALMDEVVKATSRGCITIIGGGDTATCCAKWNTEDKVSHVSTGGGASLELLEGKVLPGVDALSNI [PGK1]”, for which, in the data set on HeLa Kyoto [1], the “solubility in G1/S (log2)” value is 0.376. Besides, the figures for the melting temperature with HeLa Kyoto [2] (cell cycle stage: G1/S) and in the data set with HeLa Kyoto [2] (cell cycle stage: mitosis) were 53.8 °C and 53.9 °C, respectively. Moreover, the “solubility change mitosis (log2)” value in the data set on HeLa Kyoto [3] was -0.0583. Also, the figures for the thermal stability score with HeLa Kyoto [4] (setting [5]) and in the data set with HeLa Kyoto [4] (cell cycle stage: mitosis) were 1.07 and 0.993, respectively.
As for “MSLTSSSSVRVEWIAAVTIAAGTAAIGYLAYKRFYVKDHRNKAMINLHIQKDNPKIVHAFDMEDLGDKAVYCRCWRSKKFPFCDGAHTKHNEETGDNVGPLIIKKKET [CISD1]”, in the data set on HeLa Kyoto [1], the “solubility in G1/S (log2)” value stood at 0.633. In addition, the melting temperature in the data set with HeLa Kyoto [2] (cell cycle stage: G1/S) worked out at 57.1 °C; in the data set on HeLa Kyoto [2] (cell cycle stage: mitosis), 55.3 °C. For the same sequence, the “solubility change mitosis (log2)” value in the data set on HeLa Kyoto [3] worked out at 0.0262. Besides, the thermal stability score in the data set with HeLa Kyoto [4] (setting [5]) was -0.277; in the data set with HeLa Kyoto [4] (cell cycle stage: mitosis), -1.59.
Take “MSLVAYASSDESEPDEAEPEPEEEEAVAPTSGPALGGLFASLPAPKGPALLPPPPQMLAPAFPPPLLLPPPTGDPRLQPPPPLPFGLGGFPPPPGVSPAEAAGVGEGLGLGLPSPRGPGLNLPPPIGGAGPPLGLPKPKKRKEPVKIAAPELHKGDSDSEEDEPTKKKTILQGSSEGTGLSALLPQPKNLTVKETNRLLLPHAFSRKPSDGSPDTKPSRLASKTKTSSLAPVVGTTTTTPSPSAIKAAAKSAALQVTKQITQEEDDSDEEVAPENFFSLPEKAEPPGVEPYPYPIPTVPEELPPGTEPEPAFQDDAANAPLEFKMAAGSSGAPWMPKPGDDYSYNQFSTYGDANAAGAYYQDYYSGGYYPAQDPALVPPQEIAPDASFIDDEAFKRLQGKRNRGREEINFVEIKGDDQLSGAQQWMTKSLTEEKTMKSFSKKKGEQPTGQQRRKHQITYLIHQAKERELELKNTWSENKLSRRQTQAKYGF [PRCC]”: in the data set with HeLa Kyoto [1], the “solubility in G1/S (log2)” value was determined as 0.46. The melting temperature was determined as 53.2 °C in the data set on HeLa Kyoto [2] (cell cycle stage: G1/S) and 53.8 °C in the data set with HeLa Kyoto [2] (cell cycle stage: mitosis). For the same sequence, the “solubility change mitosis (log2)” value in the data set with HeLa Kyoto [3] is -0.00665. In addition, the thermal stability score in the data set on HeLa Kyoto [4] (setting [5]) is -2.8; with HeLa Kyoto [4] (cell cycle stage: mitosis), -0.438.

(Values after the supplement of paper PMC5998384.)
